# Test results from paper doi:10.1101/2020.04.06.028423 (bioRxiv, 2020).
# T1: His-tagged VP35 IID (VP35 aa 215-340) (Ebola virus (EBOV), UniProt Q05127 215-340)
# T1 sequence: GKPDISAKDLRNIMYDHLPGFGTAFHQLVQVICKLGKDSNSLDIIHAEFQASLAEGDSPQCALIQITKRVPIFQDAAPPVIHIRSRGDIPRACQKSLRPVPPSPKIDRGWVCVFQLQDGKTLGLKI
# B1: GST-NP(412-500) (domain or fragment)
# chain: ASLPKTSGHYDDDDDIPFPGPINDDDNPGHQDDDPTDSQDTTIPDVVVDPDDGSYGEYQSYSENGMNAPDDLVLFDLDEDDEDTKPVPN
# Biological target: T1, His-tagged VP35 IID (VP35 aa 215-340)
# Assay: pull-down
row,Binder,binding result
1,DDLVLFDLDEDDEDTKPVPN (domain or fragment) [GST-NP(481-500)],binds
2,B1,binds
3,DDLVLFDLDEDDED (domain or fragment) [GST-NP(481-494)],binds
